In the supplement of paper PMC10567573:

B1: HDAC6 (parent)
chain: DLMETTQYMNEGELRVLADTYDSV
B2: USP39 (parent)
chain: TLSEAYIQIWKRRDNDETNQQGA

Variants of: B1
Assay: protein stability index of a GFP-peptide fusion (GPS, HEK-293T) (PSI 1-6); higher = more stable
Conditions: c terminus: a fixed tail appended
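Also: lentivirally expressed fusions sorted by FACS into six bins by GFP to DsRed ratio, PSI derived from sequencing read proportions per bin multiplied by bin number.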

Variant | protein stability index
CLMETTQYMNEGELRVLADTYDSV [D1C] | 2.48
ALMETTQYMNEGELRVLADTYDSV [D1A] | 1.77

Variants of: B2
Assay: as above
Conditions: c terminus: native

Variant | protein stability index
TLSEAYIQIWKRRDNDETAQQGA [N19A] | 2.38
TLSEAYIQIWKRRDNDETTQQGA [N19T] | 3.51
TLSEAYIQIWKRRDNDETRQQGA [N19R] | 2.37
TLSEAYIQIWKRRDNDETVQQGA [N19V] | 2.32
TLSEAYIQIWKRRDNDETCQQGA [N19C] | 2.1
TLSEAYIQIWKRRDNDETFQQGA [N19F] | 2.99
TLSEAYIQIWKRRDNDETEQQGA [N19E] | 3.9
TLSEAYIQIWKRRDNDETGQQGA [N19G] | 3.69
TLSEAYIQIWKRRDNDETYQQGA [N19Y] | 3.5
TLSEAYIQIWKRRDNDETPQQGA [N19P] | 1.45
TLSEAYIQIWKRRDNDETKQQGA [N19K] | 2.77
TLSEAYIQIWKRRDNDETMQQGA [N19M] | 2.06
TLSEAYIQIWKRRDNDETHQQGA [N19H] | 2.75
TLSEAYIQIWKRRDNDETWQQGA [N19W] | 2.61
TLSEAYIQIWKRRDNDETQQQGA [N19Q] | 2.85
TLSEAYIQIWKRRDNDETDQQGA [N19D] | 4.38
TLSEAYIQIWKRRDNDETSQQGA [N19S] | 2.9
TLSEAYIQIWKRRDNDETLQQGA [N19L] | 1.79
TLSEAYIQIWKRRDNDETNQQTA [G22T] | 3.66
TLSEAYIQIWKRRDNDETNQQQA [G22Q] | 4.13
TLSEAYIQIWKRRDNDETNQQKA [G22K] | 4.09
TLSEAYIQIWKRRDNDETNQQYA [G22Y] | 3.04
TLSEAYIQIWKRRDNDETNQQPA [G22P] | 3.05
TLSEAYIQIWKRRDNDETNQQHA [G22H] | 3.63

Variant | protein stability index
TLSEAYIQIWKRRDNDETNQQLA [G22L] | 3.26
TLSEAYIQIWKRRDNDETNQQNA [G22N] | 4.12
TLSEAYIQIWKRRDNDETNQQFA [G22F] | 3
TLSEAYIQIWKRRDNDETNQQIA [G22I] | 3.35
TLSEAYIQIWKRRDNDETNQQDA [G22D] | 3.84
TLSEAYIQIWKRRDNDETNQQAA [G22A] | 3.77
TLSEAYIQIWKRRDNDETNQQCA [G22C] | 2.83
TLSEAYIQIWKRRDNDETNQQSA [G22S] | 3.82
TLSEAYIQIWKRRDNDETNQQVA [G22V] | 3.41
TLSEAYIQIWKRRDNDETNQQEA [G22E] | 4.79
TLSEAYIQIWKRRDNDETNQQMA [G22M] | 3.1
TLSEAYIQIWKRRDNDETNQQRA [G22R] | 2.83
TLSEAYIQIWKRRDNDETNQQWA [G22W] | 2.45
TLSEAYIQIWKRRDVDETNQQGA [N15V] | 2.12
TLSEAYIQIWKRRDMDETNQQGA [N15M] | 1.86
TLSEAYIQIWKRRDTDETNQQGA [N15T] | 1.88
TLSEAYIQIWKRRDRDETNQQGA [N15R] | 2.24
TLSEAYIQIWKRRDDDETNQQGA [N15D] | 3.03
TLSEAYIQIWKRRDIDETNQQGA [N15I] | 2.53
TLSEAYIQIWKRRDHDETNQQGA [N15H] | 3.1
TLSEAYIQIWKRRDKDETNQQGA [N15K] | 2.51
TLSEAYIQIWKRRDFDETNQQGA [N15F] | 2.24
TLSEAYIQIWKRRDPDETNQQGA [N15P] | 1.77
TLSEAYIQIWKRRDSDETNQQGA [N15S] | 1.88

Variant | protein stability index
TLSEAYIQIWKRRDLDETNQQGA [N15L] | 1.92
TLSEAYIQIWKRRDGDETNQQGA [N15G] | 2.68
TLSEAYIQIWKRRDWDETNQQGA [N15W] | 2.36
TLSEAYIQIWKRRDQDETNQQGA [N15Q] | 2.01
TLSEAYIQIWKRRDYDETNQQGA [N15Y] | 1.28
TLSEAYIQIWKRRDCDETNQQGA [N15C] | 2.31
TLSEAYIQIWKRRDEDETNQQGA [N15E] | 3.18
TLSEAYIQIWKRRDADETNQQGA [N15A] | 2.38
TLSEAYIQIWKRRDNDETNAQGA [Q20A] | 2.51
TLSEAYIQIWKRRDNDETNRQGA [Q20R] | 2.35
TLSEAYIQIWKRRDNDETNDQGA [Q20D] | 2.37
TLSEAYIQIWKRRDNDETNSQGA [Q20S] | 4.26
TLSEAYIQIWKRRDNDETNEQGA [Q20E] | 2.15
TLSEAYIQIWKRRDNDETNPQGA [Q20P] | 1
TLSEAYIQIWKRRDNDETNLQGA [Q20L] | 2.02
TLSEAYIQIWKRRDNDETNVQGA [Q20V] | 1.73
TLSEAYIQIWKRRDNDETNFQGA [Q20F] | 2.02
TLSEAYIQIWKRRDNDETNGQGA [Q20G] | 2.68
TLSEAYIQIWKRRDNDETNKQGA [Q20K] | 2.14
TLSEAYIQIWKRRDNDETNMQGA [Q20M] | 3.46
TLSEAYIQIWKRRDNDETNHQGA [Q20H] | 1.58
TLSEAYIQIWKRRDNDETNCQGA [Q20C] | 2.38
TLSEAYIQIWKRRDNDETNNQGA [Q20N] | 3.41
TLSEAYIQIWKRRDNDETNIQGA [Q20I] | 1.74

Variant | protein stability index
TLSEAYIQIWKRRDNDETNYQGA [Q20Y] | 2.4
TLSEAYIQIWKRRDNDETNWQGA [Q20W] | 2.17
TLSEAYIQIWKRRDNDETNTQGA [Q20T] | 3.77
TLSEAYIQIWKRRDNDECNQQGA [T18C] | 1.69
TLSEAYIQIWKRRDNDEVNQQGA [T18V] | 2.56
TLSEAYIQIWKRRDNDEWNQQGA [T18W] | 2.11
TLSEAYIQIWKRRDNDERNQQGA [T18R] | 2.54
TLSEAYIQIWKRRDNDEANQQGA [T18A] | 3.05
TLSEAYIQIWKRRDNDEKNQQGA [T18K] | 3.63
TLSEAYIQIWKRRDNDEDNQQGA [T18D] | 1.95
TLSEAYIQIWKRRDNDEQNQQGA [T18Q] | 1.61
TLSEAYIQIWKRRDNDENNQQGA [T18N] | 2.41
TLSEAYIQIWKRRDNDEMNQQGA [T18M] | 1.43
TLSEAYIQIWKRRDNDEINQQGA [T18I] | 3.17
TLSEAYIQIWKRRDNDEHNQQGA [T18H] | 3.19
TLSEAYIQIWKRRDNDEENQQGA [T18E] | 2.56
TLSEAYIQIWKRRDNDEPNQQGA [T18P] | 1.87
TLSEAYIQIWKRRDNDEYNQQGA [T18Y] | 2.51
TLSEAYIQIWKRRDNDEFNQQGA [T18F] | 1.73
TLSEAYIQIWKRRDNDESNQQGA [T18S] | 1.89
TLSEAYIQIWKRRDNDELNQQGA [T18L] | 2.06
TLSEAYIQIWKRRDNDEGNQQGA [T18G] | 2.57
TLSEAYIQIWKRRVNDETNQQGA [D14V] | 2.9
